The text below walks through data of IntAct's records for PubMed 19204291.

Sequences and labels used below:
B1: Programmed cell death protein 4 (Homo sapiens), Q53EL6 (parent)
chain: MDVENEQILNVNPADPDNLSDSLFSGDEENAGTEEIKNEINGNWISASSINEARINAKAKRRLRKNSSRDSGRGDSVSDSGSDALRSGLTVPTSPKGRLLDRRSRSGKGRGLPKKGGAGGKGVWGTPGQVYDVEEVDVKDPNYDDDQENCVYETVVLPLDERAFEKTLTPIIQEYFEHGDTNEVAEMLRDLNLGEMKSGVPVLAVSLALEGKASHREMTSKLLSDLCGTVMSTTDVEKSFDKLLKDLPELALDTPRAPQLVGQFIARAVGDGILCNTYIDSYKGTVDCVQARAALDKATVLLSMSKGGKRKDSVWGSGGGQQSVNHLVKEIDMLLKEYLLSGDISEAEHCLKELEVPHFHHELVYEAIIMVLESTGESTFKMILDLLKSLWKSSTITVDQMKRGYERIYNEIPDINLDVPHSYSVLERFVEECFQAGIISKQLRDLCPSRGRKRFVSEGDGGRLKPESY

In this experiment the parent is B1. The conditions noted are these: with if4a1_human EIF4A1, P60842.
Chain of if4a1_human EIF4A1, P60842 (P60842 whole entry): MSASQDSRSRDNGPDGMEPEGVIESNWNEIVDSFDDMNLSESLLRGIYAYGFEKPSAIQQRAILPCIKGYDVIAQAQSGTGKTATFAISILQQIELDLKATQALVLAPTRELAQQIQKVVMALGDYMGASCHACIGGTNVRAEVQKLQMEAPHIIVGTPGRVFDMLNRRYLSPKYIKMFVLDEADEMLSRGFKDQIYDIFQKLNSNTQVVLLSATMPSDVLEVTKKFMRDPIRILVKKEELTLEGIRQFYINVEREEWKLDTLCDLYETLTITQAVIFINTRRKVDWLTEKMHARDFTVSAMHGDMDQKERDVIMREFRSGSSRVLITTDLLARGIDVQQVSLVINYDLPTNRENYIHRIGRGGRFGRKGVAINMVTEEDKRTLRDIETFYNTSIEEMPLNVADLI
For E249A;D253A;D414A;D418A, the “effect of a mutation on the interaction” value is recorded as “disrupting interaction strength”.
